Experimental data published in US20230220084A1 (DRAGONFLY THERAPEUTICS, published 2023).
Numbering of substitutions follows the chain as printed.

T1: hCLEC12A-His fusion protein (human, UniProt Q5QGZ9 65-265, limits assumed)
T1 construct: Recombinant His-tagged human CLEC12A; also called Human CLEC12A-His; recombinant human CLEC12A
T1 sequence (looked up): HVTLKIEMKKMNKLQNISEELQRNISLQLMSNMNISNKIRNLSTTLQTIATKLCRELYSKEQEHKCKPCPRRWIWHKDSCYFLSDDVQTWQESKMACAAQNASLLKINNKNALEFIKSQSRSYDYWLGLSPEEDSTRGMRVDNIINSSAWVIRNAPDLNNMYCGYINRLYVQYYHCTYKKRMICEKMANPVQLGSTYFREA

B1: parent scFv (YDYDDSLDY) (SEQ ID NO:5) of F3′-1602, yeast display (scFv)
scFv: QLQLQESGPGLVKPSETLSLTCTVSGFSLTNYGLHWIRQPPGKCLEWIGVIWSGGKTDYNPSLKSRVTISKDTSKNQFSLKLSSVQAADTAVYYCAKYDYDDSLDYWGQGTLVTVSSGGGGSGGGGSGGGGSGGGGSDIQMTQSPSSLSASVGDRVTITCHASQNINFWLSWYQQKPGKAPKLLIYEASNLHTGVPSRFSGSGSGTRFTLTISSLQPEDIATYYCQQSHSYPLTFGCGTKLEIK
B2: AB0053 (bispecific antibody)
chain: B1 scFv with S103A

Legend:
[1] = biological target: T1, hCLEC12A-His fusion protein; test: yeast display flow cytometry with hCLEC12A-his (PE-A against FITC-A)
[2] = biological target: T1, hCLEC12A-His fusion protein; test: SPR 37 C, two-state fit, kd2
[3] = biological target: T1, hCLEC12A-His fusion protein; test: SPR 37 C, two-state fit, ka1; ka1 of two-state fit, 37 C
[4] = biological target: T1, hCLEC12A-His fusion protein; test: SPR 37 C, two-state fit, kd1; kd1 of two-state fit, 37 C
[5] = biological target: T1, hCLEC12A-His fusion protein; test: SPR 37 C, two-state fit; overall KD of two-state fit, 37 C

| Binder | binding result [1] | koff [2] | kon [3] | koff [4] | Kd [5] |
| --- | --- | --- | --- | --- | --- |
| B1 | binds |  |  |  |  |
| B2 |  | 0.000949 s⁻¹ | 1.63e+06 M⁻¹ s⁻¹ | 0.0157 s⁻¹ | 2.41 nM |
